Consider 16 molecules from patent US20220380456A1 (UNITED KINGDOM RESEARCH AND INNOVATION, published 2022).

The target in experiment [1] is T1, His6-TEV-MSP2N2 (CA15915) (human Apo A-I derived, engineered, UniProt P02647 79-267, limits assumed).
T1 construct: Membrane scaffold protein; The entry holds the 6xHis tag, the TEV cleavage site and MSP2N2; Tested in Apo-state, in Nanodisc-state, and as the belt of nanodiscs loaded with GABAAR-β3
As to the kind of experiment: ELISA, purified MegaBody on coated MSP (Apo- or Nanodisc-state) vs non-coated wells, A405.

For experiment [2], the target named is T2, His6-TEV-MSP1D1 (CA15914) (human Apo A-I derived, engineered, biotinylated with EZ-link NHS-Biotin for the BLI experiment only).
T2 construct: Membrane scaffold protein; The entry holds the 6xHis tag, the TEV cleavage site and MSP1D1; Tested in Apo-state (lipid free) and in Nanodisc-state (POPC nanodisc, two MSP1D1 per nanodisc)
T2 chain: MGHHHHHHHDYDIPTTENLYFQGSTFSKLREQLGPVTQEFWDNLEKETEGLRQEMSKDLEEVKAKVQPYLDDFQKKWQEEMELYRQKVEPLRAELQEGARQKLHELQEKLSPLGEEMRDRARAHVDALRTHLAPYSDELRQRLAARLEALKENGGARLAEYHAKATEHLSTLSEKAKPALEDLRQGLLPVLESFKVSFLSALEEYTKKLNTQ
The experiment is described as above.

Experiment [3] concerns the target T2, His6-TEV-MSP1D1 (CA15914). As to the kind of experiment: ELISA, periplasmic extract on coated MSP (1 µg/mL in 100 µL, Apo- and Nanodisc-state), EPEA-tag detection, OD405 after 1 h. In general terms: An ELISA detects its analyte on a solid surface through an enzyme-linked reagent.
Experimental: (§1) Nanobodies were detected after 1 h (FIG. 2A) and overnight (FIG. 2B) subsequent incubation with a biotinylated CaptureSelect antibody and developed with a Streptavidin Alkaline Phosphatase conjugate.
The target in experiment [4] is T1, His6-TEV-MSP2N2 (CA15915). Description: ELISA, periplasmic extract on coated MSP (1 µg/mL in 100 µL, Apo- and Nanodisc-state), EPEA-tag detection, OD405 after overnight.
Experimental: as §1
In experiment [5] the target is T1, His6-TEV-MSP2N2 (CA15915). Description: ELISA, periplasmic extract on coated MSP (1 µg/mL in 100 µL, Apo- and Nanodisc-state), EPEA-tag detection, OD405 after 1 h.
Experimental: as §1
Experiment [6] deals with T2, His6-TEV-MSP1D1 (CA15914). As to the kind of experiment: ELISA, periplasmic extract on coated MSP (1 µg/mL in 100 µL, Apo- and Nanodisc-state), EPEA-tag detection, OD405 after overnight.
Experimental: as §1

B1: MbNbB1^c7HopQ MegaBody (CA15908) (other)
chain: QVQLVESGGGLVQTKTTTSVIDTTNDAQNLLTQAQTIVNTLKDYCPILIAKSSSSNGGTNNANTPSWQTAGGGKNSCATFGAEFSAASDMINNAQKIVQETQQLSANQPKNITQPHNLNLNSPSSLTALAQKMLKNAQSQAEILKLANQVESDFNKLSSGHLKDYIGKCDASAISSANMTMQNQKNNWGNGCAGVEETQSLLKTSAADFNNQTPQINQAQNLANTLIQELGNNTYEQLSRLLTNDNGTNSKTSAQAINQAVNNLNERAKTLAGGTTNSPAYQATLLALRSVLGLWNSMGYAVICGGYTKSPGENNQKDFHYTDENGNGTTINCGGSTNSNGTHSYNGTNTLKADKNVSLSIEQYEKIHEAYQILSKALKQAGLAPLNSKGEKLEAHVTTSKYGSLRLSCTASGFSLSSSYMDWVRQAPGKGIEWVSTISPGGRITYAVSVEGRFTLSRDNAKNTLSLQMNELKPEDTAVYYCRRLGEKGQGTQVTVSSHHHHHHEPEA
notes: MegaBody: c7HopQ scaffold inserted in the first β-turn of Nanobody MP1521_B1; Entry includes 6xHis and EPEA tags
On to B1, for which the “fold ELISA signal over no MSP” value in experiment [1] and in experiment [2] was no less than 4 fold each time.

B2: MbNbB4^c7HopQ MegaBody (CA15907) (other)
chain: QVQLVESGGGLVQTKTTTSVIDTTNDAQNLLTQAQTIVNTLKDYCPILIAKSSSSNGGTNNANTPSWQTAGGGKNSCATFGAEFSAASDMINNAQKIVQETQQLSANQPKNITQPHNLNLNSPSSLTALAQKMLKNAQSQAEILKLANQVESDFNKLSSGHLKDYIGKCDASAISSANMTMQNQKNNWGNGCAGVEETQSLLKTSAADFNNQTPQINQAQNLANTLIQELGNNTYEQLSRLLTNDNGTNSKTSAQAINQAVNNLNERAKTLAGGTTNSPAYQATLLALRSVLGLWNSMGYAVICGGYTKSPGENNQKDFHYTDENGNGTTINCGGSTNSNGTHSYNGTNTLKADKNVSLSIEQYEKIHEAYQILSKALKQAGLAPLNSKGEKLEAHVTTSKYGSLRLSCAASKSFFNIYDLAWYRQAPGKQRELVASITKVGSTNYADSVKGRFTTSRDNAKKTVYLQMNSLKPEDTAVYYCNLVSPGGVYNYWGQGTQVTVSSHHHHHHEPEA
notes: MegaBody: c7HopQ scaffold inserted in the first β-turn of Nanobody MP1521_B4; Entry includes 6xHis and EPEA tags
For B2, the “fold ELISA signal over no MSP” value in experiment [1] and in experiment [2] was no less than 4 fold each time.

B3: MP1521_G9 Nanobody (CA15884) (VHH)
VHH: QVQLVESGGGSVQAGGSLRLSCAASGRTFSTYRMGWFRQAPGKEREFVAGWNSINIYYADSVKGRFTISGDNAKSTVYLQMNSLKPEDTAVYYCAARGLGQTEYNYWGQGTQVTVSS
notes: Entry includes 6xHis and EPEA tags; tested as periplasmic extract
Take B3: the binding result in experiment [3] and in experiment [4] was “binds” throughout.

B4: MP1521_B4 Nanobody (CA15893) (VHH)
VHH: QVQLVESGGGLVQPGGSLRLSCAASKSFFNIYDLAWYRQAPGKQRELVASITKVGSTNYADSVKGRFTTSRDNAKKTVYLQMNSLKPEDTAVYYCNLVSPGGVYNYWGQGTQVTVSS
notes: as for B3
Turning to B4, the binding result in experiment [5] and in experiment [3] was “binds” in each case.

B5: MP1521_B1 Nanobody (CA15895) (VHH)
VHH: QVQLVESGGGLVQPGGSLRLSCTASGFSLSSSYMDWVRQAPGKGIEWVSTISPGGRITYAVSVEGRFTLSRDNAKNTLSLQMNELKPEDTAVYYCRRLGEKGQGTQVTVSS
notes: as for B3
Consider B5, for which the binding result in experiment [5] and in experiment [3] was “binds” throughout.

B6: MP1522_B9 Nanobody (CA15888) (VHH)
VHH: QVQLVESGGGLVQAGGSLRLSCVRSARTFGSVAMGWFRQAPGKEREFVTAIDWSGSNTLYADSVKGRFTISRDNAKNTVYLQMNSLKPDDTAVYYCAASRRVVVTTSDFDSWGQGTQVTVSS
notes: as for B3
With B6, the binding result in experiment [5] and in experiment [3] was “binds” in each case.

B7: MP1521_F3 Nanobody (CA15894) (VHH)
VHH: QVQLVESGGGLVQPGGSLRLSCAASGSGFGPNVMGWYRQAPGKRRELVATINRIGNINYGDSVKGRFTLSREIAVNTVYLQMNSLKPEDAANYYCYAAKYGVDYWGKGTQVTVSS
notes: Entry includes 6xHis and EPEA tags; tested as periplasmic extract; also called Nb F3
Regarding B7, the binding result in experiment [5] and in experiment [3] was “binds” throughout.

B8: MP1522_A5 Nanobody (CA15892) (VHH)
VHH: QVQLVESGGGLVQPGGSLRLSCAASGFAFSNSYMSWVRQAPGKGPEWVSSISPSAWIITHGDSVKGRFTISRDNAKNTLYLQMNHLKPEDAALYYCARRQGYDGYVPSRDYWGQGTQVTVSS
notes: as for B3
Take B8: the binding result in experiment [5] and in experiment [3] was “binds” throughout.

B9: MbNbE1^c7HopQ MegaBody (CA15909) (other)
chain: QVQLVESGGGLVQTKTTTSVIDTTNDAQNLLTQAQTIVNTLKDYCPILIAKSSSSNGGTNNANTPSWQTAGGGKNSCATFGAEFSAASDMINNAQKIVQETQQLSANQPKNITQPHNLNLNSPSSLTALAQKMLKNAQSQAEILKLANQVESDFNKLSSGHLKDYIGKCDASAISSANMTMQNQKNNWGNGCAGVEETQSLLKTSAADFNNQTPQINQAQNLANTLIQELGNNTYEQLSRLLTNDNGTNSKTSAQAINQAVNNLNERAKTLAGGTTNSPAYQATLLALRSVLGLWNSMGYAVICGGYTKSPGENNQKDFHYTDENGNGTTINCGGSTNSNGTHSYNGTNTLKADKNVSLSIEQYEKIHEAYQILSKALKQAGLAPLNSKGEKLEAHVTTSKYGSLRLSCAASGTITRSPTMSWARQAPGRQREWVTSILGTGRTDYADSVKGRFTISRDNANNTVYLQMNNLKPEDSAVYYCYTVLNGRPSWGQGTQVTVSSHHHHHHEPEA
notes: MegaBody: c7HopQ scaffold inserted in the first β-turn of Nanobody MP1521_E1; Entry includes 6xHis and EPEA tags
For the molecule B9, the “fold ELISA signal over no MSP” value in experiment [1] and in experiment [2] was no less than 4 fold in each case.

B10: MP1522_B7 Nanobody (CA15886) (VHH)
VHH: QVQLVESGGGLVQAGGSLRLSCAASGRSFSSYGMGWFRQAPGKEREFAAGITGTAGITYYTDSVKGRFTISRDNAKNTVYLQMNNLKPEDTAVYYCAAGLTSYAGRGAAGYDYWGQGTQVTVSS
notes: as for B3
With B10, the binding result in experiment [4] and in experiment [6] was “binds” each time.

B11: MP1522_C10 Nanobody (CA15891) (VHH)
VHH: QVQLVESGGGLVQAGGSLRLACAASGRTSGSYAIGWFRQAPGKEREFAAAISFTAGVTYYSNSVKGRFTISRDSAKNTAYLQMNTLKPEDTAVYYCATLPSLVLILTAKPNIGYWGQGTQVTVSS
notes: as for B3
On to B11, for which the binding result in experiment [5] and in experiment [3] was “binds” throughout.

B12: MP1521_B9 Nanobody (CA15883) (VHH)
VHH: QVQLVESGGGLVQAGGSLRLSCAASGRTLCSIPMGWFRQAPGKEREFVAAIRWSGGSTYYADSVKGRFSISKDNAKNTVYLQMNNLKPEDTATYYCASAAPYSSWSRGLEYDYWGQGTQVTVSS
notes: as for B3
Take B12: the binding result in experiment [5] and in experiment [3] was “binds” in each case.

B13: MP1521_E1 Nanobody (CA15896) (VHH)
VHH: QVQLVESGGGLVQPGGSLRLSCAASGTITRSPTMSWARQAPGRQREWVTSILGTGRTDYADSVKGRFTISRDNANNTVYLQMNNLKPEDSAVYYCYTVLNGRPSWGQGTQVTVSS
notes: as for B3
For the molecule B13, the binding result in experiment [5] and in experiment [3] was “binds” in each case.

B14: MP1522_A12 Nanobody (CA15885) (VHH)
VHH: QVQLVESGGGLVQAGGSLRLSCAASGRTFSSYNMAWFRQVPGKEREFVASIARTGSGTYYRDSVKGRFTISRDNAKNTVYLQMNSLKPQDTAVYYCTAGGSLATISDYWGQGTQVTVSS
notes: as for B3
B14: the binding result in experiment [4] and in experiment [6] was “binds” in each case.

B15: MP1521_H5 Nanobody (CA15890) (VHH)
VHH: QVQLVESGGGLVQPGGSLKLSCAASGFTFSTYSMSWVRQAPGKGLEWVSRILTDGGTTSYPDSVKGRFTISRDNAKNTLYLQMNNLKPEDTAVYYCARGWPSDGYSGGYRGQGTQVTVSS
notes: as for B3
Turning to B15, the binding result in experiment [5] and in experiment [3] was “binds” throughout.

B16: MP1521_E4 Nanobody (CA15889) (VHH)
VHH: QVQLVESGGGLVQAGGSLRLSCAASGRTFGSTFMGWFRQAPGKERDFVASITWNRGLTTYADSVKGRFTISRDSAKNTVDLQMNNLKPEDTAVYYCVLGMGTSFASWGQGTQVTVSS
notes: as for B3
In the case of B16, the binding result in experiment [5] and in experiment [3] was “binds” each time.
